Results from US20100029702A1, “Method For Identification of Compound Having Anti-Anxiety Effect” (priority 2006, published 2010).

Target: T1, variant 3 (Homo sapiens, UniProt O60241, DEL364-418)
T1 construct: a vector expressing each full-length cDNA clone was constructed; expressed in transfected cells; host or cells: CHO-K1 (variant3/CHO#14-18), variant3/pcDNA3.1
T1 sequence (O60241 with tags, fused parts or gaps DEL364-418): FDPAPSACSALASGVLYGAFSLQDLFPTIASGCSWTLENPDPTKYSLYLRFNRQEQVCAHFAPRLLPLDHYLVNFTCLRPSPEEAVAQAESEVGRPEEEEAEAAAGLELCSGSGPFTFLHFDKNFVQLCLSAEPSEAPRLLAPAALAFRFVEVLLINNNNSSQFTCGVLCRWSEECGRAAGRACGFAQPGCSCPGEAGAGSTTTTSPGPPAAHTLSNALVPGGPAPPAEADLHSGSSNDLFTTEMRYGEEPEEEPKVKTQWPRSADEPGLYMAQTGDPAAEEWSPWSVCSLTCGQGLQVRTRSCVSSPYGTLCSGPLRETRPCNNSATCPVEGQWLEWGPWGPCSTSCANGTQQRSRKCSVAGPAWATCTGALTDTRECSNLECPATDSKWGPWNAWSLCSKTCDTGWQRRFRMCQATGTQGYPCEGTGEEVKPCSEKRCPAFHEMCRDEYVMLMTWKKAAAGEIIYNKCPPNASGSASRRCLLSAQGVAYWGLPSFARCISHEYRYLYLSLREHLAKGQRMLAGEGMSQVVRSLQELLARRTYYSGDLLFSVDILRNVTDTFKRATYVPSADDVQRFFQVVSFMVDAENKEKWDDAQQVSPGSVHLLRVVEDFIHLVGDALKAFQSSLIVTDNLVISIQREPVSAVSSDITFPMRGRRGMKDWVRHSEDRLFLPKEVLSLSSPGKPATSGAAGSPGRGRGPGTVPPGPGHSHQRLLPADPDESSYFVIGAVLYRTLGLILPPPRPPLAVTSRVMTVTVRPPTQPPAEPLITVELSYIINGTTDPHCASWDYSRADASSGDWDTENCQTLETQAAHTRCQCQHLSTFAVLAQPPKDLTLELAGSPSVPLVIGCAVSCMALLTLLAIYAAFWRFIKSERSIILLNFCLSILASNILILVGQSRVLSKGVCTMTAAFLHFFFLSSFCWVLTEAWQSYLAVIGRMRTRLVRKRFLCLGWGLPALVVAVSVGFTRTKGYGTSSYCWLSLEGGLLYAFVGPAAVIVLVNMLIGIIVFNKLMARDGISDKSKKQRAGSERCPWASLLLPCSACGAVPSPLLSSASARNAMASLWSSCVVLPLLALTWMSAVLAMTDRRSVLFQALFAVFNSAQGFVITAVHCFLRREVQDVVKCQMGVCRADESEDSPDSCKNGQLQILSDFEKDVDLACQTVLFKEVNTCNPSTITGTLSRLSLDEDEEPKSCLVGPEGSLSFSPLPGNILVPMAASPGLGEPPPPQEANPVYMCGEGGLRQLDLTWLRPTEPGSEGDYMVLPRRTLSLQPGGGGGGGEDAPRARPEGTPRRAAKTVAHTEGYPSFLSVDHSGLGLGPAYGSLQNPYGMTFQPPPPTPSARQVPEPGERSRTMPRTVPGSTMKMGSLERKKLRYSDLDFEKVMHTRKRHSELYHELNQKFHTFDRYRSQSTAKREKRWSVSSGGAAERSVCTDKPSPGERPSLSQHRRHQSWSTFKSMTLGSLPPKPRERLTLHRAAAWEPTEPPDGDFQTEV
Assay: Changes in intracellular Ca2+ concentration in variant 3 gene stably-expressing strain
Assay type: cell-based
Conditions: variant 3 stably-expressing strain; CCK-8S 10 pM to 1 μM, figure at 1 nM
Protocol: Strains stably expressing splicing variants of the variant 3 gene were prepared by a method similar to the above-mentioned method using a variant 3 gene-expressing vector.
To analyze functions of the variant 3 gene, changes in the intracellular calcium (Ca^2+) concentration induced by CCK-8S were examined using a strain stably expressing the variant 3 gene prepared in Example 7. Changes in the intracellular calcium (Ca^2+) concentration were measured by a method similar to the method described in Example 5.
Cells were seeded in a 96-well plate (a plate with a black wall and a transparent bottom) at a cell count of 3×10^4/100 μL of medium/well and cultured overnight at 37° C. in a 5% CO2 incubator. On the following day, 50 μL of the medium was removed from each well, 50 μL of a loading buffer was added to each well, the mixture was reacted at room temperature for 1 h, so that a fluorescent dye contained in the loading buffer was taken up into the cell. The loading buffer was prepared by a method similar to the method described in Example 5. After reaction, changes over time in the fluorescence intensity after addition of CCK-8S in each well were measured using the FLEX station (Molecular Device) for 40 sec. CCK-8S was used at a final concentration of 10 pM to 1 μM. Furthermore, as a positive control of the assay, A23187 was used at a final concentration of 20 μM.

- Change in intracellular Ca2+ concentration after addition of CCK-8S: increase
Substance: cholecystokinin octapeptide sulfated form [CCK-8S]
